According to patent US20090162358A1 (GlaxoSmithKline, published 2009):
Changes are numbered by the printed parent chain. Ends that are not written are not given here. * marks the point of attachment. Biotin = O=C1N[C@H]2[C@H](CS[C@H]2CCCCC(=O)*)N1

Legend:
[1] = target: T1, human β-amyloid 1-40 (human, UniProt P05067 672-711); test: ELISA on human Aβ peptide (1-40), in combination with H11
T1 construct: domain: β-amyloid (1-40); Used in solution over captured antibody (Biacore) or coated on ELISA plates; also called human Aβ peptide (1-40); Aβ peptide (1-40)

[2] = target: T1, human β-amyloid 1-40; test: SPR Biacore T100; antibody captured on anti-human IgG, Aβ 1-40 at 1-256 nM; 1:1 model
Method: (§1) Anti-human IgG (Biacore BR-1008-39) was coupled to a CM5 biosensor chip by primary amine coupling. The anti-beta amyloid antibodies were captured on this surface. Beta amyloid (1-40) was then passed over at 256, 64, 16, 4 and 1 nM, with a 0 nM (ie buffer alone passed over the captured antibody surface) used for double referencing. […] The data was analysed using the 1:1 model inherent to the T100. The run was carried out at 25° C. and 37° C. using HBS-EP as the running buffer.

[3] = target: T1, human β-amyloid 1-40; test: SPR Biacore T100 at 37 C; antibody captured on anti-human IgG, Aβ 1-40 at 1-256 nM
Method: as §1
From this panel some constructs were also assessed for binding kinetics at physiological temperature.

[4] = target: T2, N-terminal coupled CGGGEDVGSNKGAIIGLMVGG (22-38) ovalbumin conjugate (coupled by the N-terminus to ovalbumin); test: FMAT bead immunoassay, culture supernatant
T2 peptide: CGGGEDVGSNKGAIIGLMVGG
From the text: (§2) Each of the expressed antibodies contained in culture supernatant was then screened in an FMAT (Fluorescent Microvolume Assay Technology) homogenous immunoassay. 29 positive antibodies were identified from this screening cascade that were negative for ovalbumin protein passively absorbed to polystyrene beads but positive for: [0158] (i) N-terminal coupled […] (22-38) (SEQ ID No:73) ovalbumin conjugate bound to polystyrene beads, [0159] (ii) N-terminal biotinylated β-amyloid(1-40) peptide bound to streptavidin coated polystyrene beads, [0160] (iii) C-terminal biotinylated β-amyloid(1-40) peptide bound to streptavidin coated polystyrene beads and [0161] (iv) N-terminal biotinylated β-amyloid (24-34) peptide, residues 24-34 of β-amyloid being […] (SEQ ID No:8), bound to streptavidin coated polystyrene beads.

[5] = target: T3, ovalbumin protein (UniProt P01012 2-386); test: FMAT bead immunoassay, culture supernatant
T3 sequence (looked up): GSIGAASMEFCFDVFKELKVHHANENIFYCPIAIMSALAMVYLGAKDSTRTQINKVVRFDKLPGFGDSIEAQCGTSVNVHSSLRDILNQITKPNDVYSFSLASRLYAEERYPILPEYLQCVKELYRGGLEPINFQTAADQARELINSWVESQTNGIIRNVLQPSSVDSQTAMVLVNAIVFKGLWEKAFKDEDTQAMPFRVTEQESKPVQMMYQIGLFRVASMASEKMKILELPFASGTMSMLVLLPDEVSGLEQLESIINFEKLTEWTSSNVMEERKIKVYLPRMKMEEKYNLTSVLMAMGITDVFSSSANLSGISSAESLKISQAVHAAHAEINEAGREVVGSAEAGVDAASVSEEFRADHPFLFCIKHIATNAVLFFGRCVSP
From the text: as §2

[6] = target: T4, N-terminal biotinylated β-amyloid (24-34) peptide; test: FMAT bead immunoassay, culture supernatant
T4 peptide: Biotin-VGSNKGAIIGL
From the text: as §2

[7] = target: T1, human β-amyloid 1-40; test: SPR Biacore 3000; mAb captured on anti-mouse IgG; triplicate run
Method: (§3) Purified mouse antibody preparations were captured on a polyclonal anti-mouse IgG antibody chip surface. Freshly prepared human β-amyloid 1-40 was diluted down in HBS-EP buffer and passed over the captured antibody surface at concentrations ranging from 4-500 nM for 5 minutes. […] Regeneration was achieved via a pulse of 100 mM H₃PO₄. […] All runs were double referenced against a blank surface and blank buffer injections.

[8] = target: T1, human β-amyloid 1-40; test: SPR Biacore 3000; mAb captured on anti-mouse IgG, Aβ 1-40 at 4-500 nM
Method: as §3

[9] = target: T5, C-terminally biotinylated peptide representing 24-35 of the β-amyloid sequence; test: SPR Biacore 3000, biotinylated peptide on streptavidin chip, 6F6 at 8-64 nM
T5 construct: Captured on a streptavidin sensorchip; also called peptide 24-35
T5 peptide: VGSNKGAIIGLMGSG-biotin
Method: (§4) Purified 6F6 monoclonal antibody was injected for 3 min at 8-64 nM over C-terminally biotinylated peptides representing 24-35 (SEQ ID No:10: […]), 28-39 (SEQ ID No:11: […]) and 31-42 (SEQ ID No:12: […]) of the β-amyloid sequence captured by a streptavidin coated sensorchip. The experiment was performed using a Biacore 3000 instrument. […] It may also indicate that residues 31-35 are not sufficient for binding 6F6 and residues above position 35 appear not to be involved in binding this antibody.

[10] = target: T6, C-terminally biotinylated peptide representing 28-39 of the β-amyloid sequence; test: as above
T6 construct: Captured on a streptavidin sensorchip; also called peptide 28-39
T6 peptide: KGAIIGLMVGGVGSG-biotin
Method: as §4

[11] = target: T7, C-terminally biotinylated peptide representing 31-42 of the β-amyloid sequence; test: SPR Biacore 3000, biotinylated peptide on streptavidin chip
T7 construct: Captured on a streptavidin sensorchip; also called peptide 31-42
T7 peptide: IIGLMVGGVVIAGSG-biotin
Method: as §4

[12] = target: T8, mouse β-amyloid (1-40) (mouse, UniProt P12023 672-711); test: SPR Biacore, same method as Table 2
T8 construct: domain: β-amyloid (1-40)
T8 peptide (looked up): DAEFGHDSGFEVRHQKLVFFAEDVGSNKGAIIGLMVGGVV
Method: as §3
(§5) The same Biacore method was also used to investigate binding of 6F6 to human and mouse β-amyloid (1-40) and β-amyloid (1-42). 6F6 bound to all of these peptides with similar values.

[13] = target: T9, mouse β-amyloid (1-42) (mouse, UniProt P12023 672-713); test: SPR Biacore, same method as Table 2
T9 construct: domain: β-amyloid (1-42)
T9 peptide (looked up): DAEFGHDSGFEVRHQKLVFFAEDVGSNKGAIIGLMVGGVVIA
Method: as §3, §5

[14] = target: T1, human β-amyloid 1-40; test: SPR Biacore T100, 25 C; antibody captured on protein A, Aβ 1-40 at 2-256 nM; mean of three experiments
Method: The affinity of selected heavy and light chain combinations was determined using a Biacore T100 instrument. Three independent experiments were performed using humanised antibody immobilised via protein A surface Biacore chips and injection of β-amyloid 1-40 peptides. The chimeric molecule of 6F6 served as a reference molecule. For this Protein A was immobilised on a CM5 chip by primary amine coupling in accordance with manufactures recommendations. Anti-β-amyloid antibodies were captured on this surface and after a period of stabilisation human β-amyloid 1-40 was passed over at concentrations 256-2 nM in halving dilutions. A buffer injection over the captured antibody surface was used to double reference the data set in accordance with Biacore best practice. […] The work was carried out in HBS-EP at 25° C. Results are summarised in Table 13 as the mean of all three experiments.

[15] = target: T10, biotinylated β-amyloid 1-40 (human Aβ1-40 peptide in solution, competition ELISA) (human, UniProt P05067 672-711, biotin, position not stated); test: competition ELISA: antibody pre-incubated with biotinylated Aβ 1-40, free Aβ captured on immobilised mouse 6F6 (competitor); Exp 2
T10 construct: domain: β-amyloid (1-40)
T10 sequence (P05067 672-711 limits assumed): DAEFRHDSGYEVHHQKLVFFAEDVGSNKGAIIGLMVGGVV
Method: (§6) 6F6c and humanised antibodies H₁₁L2, H11L9, H11L10, H11L12 and H11L13 were assessed for their ability to bind Aβ1-40 peptide in solution and inhibit the interaction of human Aβ1-40 peptide with mouse 6F6 monoclonal antibody in a competition ELISA. A constant concentration of biotinylated β-amyloid 1-40 was pre-incubated with serial diluted amounts of humanised 6F6 antibody variants. The mixture including complexed and free amyloid was then added to wells containing immobilised mouse 6F6 monoclonal antibody and incubated for 15 minutes at room temperature. Plates were washed and the amount of free β-amyloid that was still available for binding the immobilised parental 6F6 monoclonal antibody was then detected using streptavidin-HRP conjugate.

[16] = target: T10, biotinylated β-amyloid 1-40 (human …); test: competition ELISA: antibody pre-incubated with biotinylated Aβ 1-40, free Aβ captured on immobilised mouse 6F6 (competitor); Exp 1
Method: as §6

B1: straight graft light chain L0 in combination with H11 (antibody, V domains shown)
VH: QVQLVQSGAEVKEPGASVKVSCKGSGFNIKVYYVHWLRQLPGKGLEWIGRIDPENGETIYTPKFQDKATLTVDTSTDTAYMELSSLRSEDTAVYYCVSSGYWGQGTLVTVSS
VL: DIVMTQSPLSLPVTPGEPASISCRSSKSLLHRNGITYLYWYLQKPGQSPQLLIYQMSNLASGVPDRFSGSGSGTDFTLKISRVEAEDVGVYYCAQNLELWTFGQGTKVEIKR
notes: Kabat positions; after CDRL1 the count on the entry is Kabat + 5; also called H11L0
binding result [1]: binds

B2: humanised de-immunised construct H50L21 (antibody, human IgG1, V domains shown)
VH: B1 VH with K23T, K30H, G42E
VL: DIVMTQSPLSNPVTPGEPASISCRSSKSLLHRNGKTYLYWYLQKPGQSPQLLIYQMDNLASGVPDRFSSSGSGTDFTLKISRVEAEDVGVYYCAQNLELWTFGQGTKVEIK
Kd [2]: 2.17 nM | Kd [3]: 2.7 nM

B3: humanised de-immunised construct H51L20 (antibody, human IgG1, V domains shown)
VH: B1 VH with K30H, V31T, G42E
VL: B2 VL with K35I, N58H
Kd [2]: 2.23 nM | Kd [3]: 3.89 nM

B4: humanised VL variant L14 in combination with H11 (antibody, V domains shown)
VH: B1 VH
VL: B1 VL with S48P, Q104G
notes: Kabat positions; after CDRL1 the count on the entry is Kabat + 5; also called H11L14
binding result [1]: binds

B5: humanised de-immunised construct H51L21 (antibody, human IgG1, V domains shown)
VH: B1 VH with K30H, V31T, G42E
VL: B2 VL
Kd [2]: 2.05 nM | Kd [3]: 2.9 nM

B6: 5D1 mouse monoclonal antibody (antibody, V domains shown)
VH: EVQLQQSGAELVKPGASVKLSCTGSGFNIKVYYVHWLKQLTEQGLEWIGRIDPENGETKYAPKFQDKATLTVDTSSNTAYLHLSSLTSEDTAVYYCVSSGYWGQGTTLTVSS
VL: B2 VL with P8A, L9F, P15L, E17T, P18S, K35I, D57S, S68T, Q104G, V108L
notes: Mouse hybridoma antibody
binding result [4]: binds | binding result [5]: no binding | binding result [6]: binds | Kd [7]: 2.05 nM | koff [7]: 0.000135 s⁻¹ | kon [7]: 65800 M⁻¹ s⁻¹ | Kd [8]: 2.57 nM | koff [8]: 0.000147 s⁻¹ | kon [8]: 57000 M⁻¹ s⁻¹

B7: 6F6 murine monoclonal antibody (antibody, mouse IgG2a, V domains shown)
VH: B6 VH with K13E, K59I, A61T, H82Q, T91A
VL: DIVMTQSAFSNPVTLGTSASISCRSSKSLLHRNGITYLYWYLQKPGQPPQLLIYQMSNLASGVPDRFTSSGSGTDFTLKISRVEAEDVGVYYCAQNLELWTFGGGTKLEIK
notes: also called 6F6 parental monoclonal antibody; mouse 6F6 monoclonal antibody
binding result [9]: binds | binding result [10]: binds | binding result [11]: no binding (tested: 8-64 nM) | binding result [4]: binds | binding result [5]: no binding | binding result [6]: binds | binding result [12]: binds | binding result [13]: binds | Kd [7]: 1.02 nM | koff [7]: 9.4e-05 s⁻¹ | kon [7]: 99300 M⁻¹ s⁻¹ | Kd [8]: 0.62 nM | koff [8]: 6.57e-05 s⁻¹ | kon [8]: 106000 M⁻¹ s⁻¹

B8: chimeric 6F6 antibody (6F6c) (antibody, human IgG1, V domains shown)
VH: B6 VH with K13E, K59I, A61T, H82Q, T91A, T107L, L108V
VL: B7 VL
notes: Murine V regions on human IgG1 (Fc disabled) and human C kappa; also called 6F6 Chimera (pur); chimeric molecule of 6F6
Kd [2]: 1 nM | Kd [14]: 3.74 nM | IC50 [15]: 0.451 µg/mL | IC50 [16]: 0.566 µg/mL
